Laboratory results from patent publication US20150218227.

Legend:
[1] = target: PPR10 ND variant motifs 6 and 7 (position 6, 1') changed to N6,D1' (Zea mays) (UniProt B8Y6I0); experiment: EMSA; conditions: RNA 15 pM
[2] = target: PPR10 NS variant motifs 6 and 7 (position 6, 1') changed to N6,S1' (Zea mays) (UniProt B8Y6I0); experiment: EMSA; conditions: RNA 15 pM

| Substance | Kd [1] [µM] | Kd [2] [µM] |
| --- | --- | --- |
| atpH CC-substituted RNA | 0.017 | 0.009 |
| atpH UU-substituted RNA | 0.003 | 0.02 |
